Data set [1] deals with the molecule itself. Briefly: cryo-EM structure; purified complex of PLXNA1-LBD and aPLXNA1-19-43 Fab; 3.33 Å.
The target in data set [2] is T1, hNRP2_ECD, human neuropilin-2 extracellular domain (Homo sapiens, UniProt O60462).
T1 construct: neuropilin-2, human, extracellular domain
Briefly: BLI; affinity of aNRP2 mAbs to hNRP2_ECD, shown as KD; as previously described; mean ± SEM of at least 3 experiments. Particulars: both partners purified. For orientation: BLI is a label-free optical method that tracks binding on a fibre tip over time.

Data set [3] deals with T2, PLXNA1-LBD, recombinant human plexinA1 ligand-binding domains (human, UniProt Q9UIW2).
T2 construct: the DNA encoded amino acids 1-710 of NP_115618.3 (signal peptide removed on secretion); The final cryo-EM model holds only the SEMA and PSI1 domains; also called hPLXNA1 LBD; source: Expi293F, transfected, purified from culture media (HiTrap MabSelect column)
Briefly: BLI; Octet Red96e; Fab captured on streptavidin tips by biotinylated anti-LC-kappa-murine antibody; PLXNA1 ECD or LBD in solution at 1.85-1350 nM; global fit, 1:1 model. Conditions: both partners purified.

Data set [4] concerns the target T3, PLXNA1-ECD, recombinant human plexinA1 full extracellular domains (Homo sapiens, UniProt Q9UIW2).
T3 construct: plexinA1, human, extracellular domains, aa 27-1244; the DNA encoded amino acids 1-1244 of NP_115618.3 (signal peptide removed on secretion); also called hPLXNA1 ECD; source: Expi293F, transfected, purified from culture media (HiTrap MabSelect column)
Described as above. Conditions: both partners purified.

T1 sequence (O60462 21-864): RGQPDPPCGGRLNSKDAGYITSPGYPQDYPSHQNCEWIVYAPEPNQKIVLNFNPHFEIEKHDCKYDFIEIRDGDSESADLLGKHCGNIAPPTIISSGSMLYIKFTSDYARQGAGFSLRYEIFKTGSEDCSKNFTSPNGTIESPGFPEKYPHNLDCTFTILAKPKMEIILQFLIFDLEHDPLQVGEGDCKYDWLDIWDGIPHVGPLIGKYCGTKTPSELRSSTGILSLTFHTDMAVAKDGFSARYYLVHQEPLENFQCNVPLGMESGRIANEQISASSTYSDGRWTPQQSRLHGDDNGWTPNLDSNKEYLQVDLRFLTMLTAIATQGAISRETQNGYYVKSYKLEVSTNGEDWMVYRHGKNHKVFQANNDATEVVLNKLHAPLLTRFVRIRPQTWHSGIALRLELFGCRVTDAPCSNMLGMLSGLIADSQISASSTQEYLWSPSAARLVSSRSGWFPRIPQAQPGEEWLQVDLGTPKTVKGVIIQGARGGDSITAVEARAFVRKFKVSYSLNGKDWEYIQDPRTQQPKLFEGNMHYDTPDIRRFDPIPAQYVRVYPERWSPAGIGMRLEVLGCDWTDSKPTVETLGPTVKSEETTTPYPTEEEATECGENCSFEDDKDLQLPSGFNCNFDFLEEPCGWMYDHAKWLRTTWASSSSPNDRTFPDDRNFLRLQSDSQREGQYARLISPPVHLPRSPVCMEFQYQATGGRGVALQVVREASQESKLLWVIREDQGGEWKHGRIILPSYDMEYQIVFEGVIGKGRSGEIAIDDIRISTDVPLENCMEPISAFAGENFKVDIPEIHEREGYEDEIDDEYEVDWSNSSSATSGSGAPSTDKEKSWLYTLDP

B1: PLXNA1-LBD, recombinant human plexinA1 ligand-binding domains (domain or fragment, UniProt Q9UIW2 27-710, looked up)
chain: EAGLPRAGGGSQPPFRTFSASDWGLTHLVVHEQTGEVYVGAVNRIYKLSGNLTLLRAHVTGPVEDNEKCYPPPSVQSCPHGLGSTDNVNKLLLLDYAANRLLACGSASQGICQFLRLDDLFKLGEPHHRKEHYLSSVQEAGSMAGVLIAGPPGQGQAKLFVGTPIDGKSEYFPTLSSRRLMANEEDADMFGFVYQDEFVSSQLKIPSDTLSKFPAFDIYYVYSFRSEQFVYYLTLQLDTQLTSPDAAGEHFFTSKIVRLCVDDPKFYSYVEFPIGCEQAGVEYRLVQDAYLSRPGRALAHQLGLAEDEDVLFTVFAQGQKNRVKPPKESALCLFTLRAIKEKIKERIQSCYRGEGKLSLPWLLNKELGCINSPLQIDDDFCGQDFNQPLGGTVTIEGTPLFVDKDDGLTAVAAYDYRGRTVVFAGTRSGRIRKILVDLSNPGGRPALAYESVVAQEGSPILRDLVLSPNHQYLYAMTEKQVTRVPVESCVQYTSCELCLGSRDPHCGWCVLHSICSRRDACERADEPQRFAADLLQCVQLTVQPRNVSVTMSQVPLVLQAWNVPDLSAGVNCSFEDFTESESVLEDGRIHCRSPSAREVAPITRGQGDQRVVKLYLKSKETGKKFASVDFVFYNCSVHQSCLSCVNGSFPCHWCKYRHVCTHNVADCAFLEGRVNVSEDCPQIL
notes: the DNA encoded amino acids 1-710 of NP_115618.3 (signal peptide removed on secretion); The final cryo-EM model holds only the SEMA and PSI1 domains; also called hPLXNA1 LBD; source: Expi293F, transfected, purified from culture media (HiTrap MabSelect column)
Take B1: the stoichiometry N (as a rule, the number of molecules, sites or subunits per partner or assembly) in data set [1] turned out to be 2.

B2: aNRP2-b2cL, anti-NRP2 mAb (antibody, V domains shown)
VH: QVRLQQPGAELVMPGASVKLSCKASGYTFTSYWMHWVKQRPGQGLEWIGVIHPNSASTFYNERFKTKATLTVDRSSSTAYMQLSSLTSEDSAVYYCSRPGTVRRSDYWGQGTTLTVSS
VL: DVLMTQSPLSLSVSLGDQASISCRSSQNIVHSTGNTYLEWYLQKPGQSPKLLIYKVSNRFSGVPDRFSGSGSGTDFTLKISRVEAEDLGVYYCFQGSHVPWTFGGGTKLEIK
notes: also called Nb2cL
On to B2, for which the Kd (as a rule, a measure of binding affinity in units of concentration) in data set [2] was 0.33 nM.

B3: aPLXNA1-19-43 Fab (Fab, V domains shown)
VH: EVQLQQSGPELVKPGASVKISCKASGYKFTENYMDWVKQSHGESLEWIGDISPDNGDTSYNQKFRDKATLTVDKSSSTAYMELRSLTSEDSAVYYCAQIIYYDYVGYALDYWGQGTSVTVSS
VL: QIVLTQSPAILSASPGEKVTMSCSVSSSITYMHWYQQKPGTSPKRWIYDTSKLASGVPARFSGSGSGTSFSLTISNMEAEDAATYYCHQRSSYPYSFGGGTKLEIK
notes: VH of aPLXNA1-19-43; also in the deposited structure; constant part of the Fab heavy chain, mouse IgG1 backbone; VL (kappa) of aPLXNA1-19-43; mouse kappa light chain constant region (Fab captured by an anti-LC-kappa-murine antibody); Fab of the mAb aPLXNA1-19-43, the anti-PLXNA1 half of m6; also called aPLXNA1 Fab 19 to 43; aPLXNA1 Fab-P1943; source: Expi293F, transfected, purified from culture …
As for B3, the Kd in data set [3] stood at 5.99 ± 1.14 nM; in data set [4], 2.37 ± 0.78 nM.

The values above are taken from PMC12809092, “A bispecific antibody designed to act as a NRP2/PLXNA1 agonist mimics anticancer activity of SEMA3F” (The Journal of Biological Chemistry, 2025).
